{
  "source": "the RNAGym collection of RNA variant scans (doi:10.1073/pnas.2313332121)",
  "parents": {"B1": {"name": "TPR 5TU (parent)", "chain": "GGAUCUUCUCGAUCUAACAAAAAAGACAAAUCUGCCACAAAGCUUGAGAGCAUCUUCGGAUGCAGAGGCGGCAGCCUUCGGUGGCGCGAUAGCGCCAACGUUCUCAACUAUGACACGCAAAACGCGUGCUCCGUUGAAUGGAGUUUAUCAUG"}},
  "note": "Variants at the floor of the assay were thinned out.",
  "data": [
    {"variants_of": "B1", "assay": "polymerase ribozyme fitness, log enrichment relative to wild type (log ratio); higher = more active; in vitro selection for triplet polymerase activity", "procedure,_shortened": "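Genotype fitness is the logarithm of its enrichment divided by wild-type enrichment, using inverse-variance-weighted averages of replicates. That logarithm is base 2. Enrichment was measured by Illumina sequencing of input and output libraries from one triplicate in vitro selection round, with frozen incubation at −7 °C, on PCR-built, transcribed mutant libraries of each subunit of a heterodimeric triplet polymerase ribozyme, retaining genotypes with ≥10 input reads and ≥1 read per output.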", "values": [
      {"variant": "A21U C54A C96U", "polymerase ribozyme fitness (log ratio)": -2.01},
      {"variant": "A22G A52G G128C", "polymerase ribozyme fitness (log ratio)": -3.48},
      {"variant": "A21U U56A G81U C85G A107U G141U U144G", "polymerase ribozyme fitness (log ratio)": "≤ -4.2"},
      {"variant": "A22G C36U C87U", "polymerase ribozyme fitness (log ratio)": -3.06},
      {"variant": "A21U C36G C51U U55C G92U U148A", "polymerase ribozyme fitness (log ratio)": "≤ -4.2"},
      {"variant": "A22U A39U C57U G59A U101G U148C A150C", "polymerase ribozyme fitness (log ratio)": "≤ -4.2"},
      {"variant": "A22G G83A A91U G100U", "polymerase ribozyme fitness (log ratio)": "≤ -4.2"},
      {"variant": "A22C G58C G70U U134C", "polymerase ribozyme fitness (log ratio)": -3.68},
      {"variant": "A22U A49C C69G G70C U101A", "polymerase ribozyme fitness (log ratio)": "≤ -4.2"},
      {"variant": "A21U C27A U44G C87A A137U", "polymerase ribozyme fitness (log ratio)": "≤ -4.2"},
      {"variant": "A21U G25C A29U U33A A37U A66C G70C G88U G124U", "polymerase ribozyme fitness (log ratio)": "≤ -4.2"},
      {"variant": "A22U A115C", "polymerase ribozyme fitness (log ratio)": -0.374},
      {"variant": "A22C C35A U55A C57U G86U A119U", "polymerase ribozyme fitness (log ratio)": "≤ -4.2"},
      {"variant": "A22C C87U", "polymerase ribozyme fitness (log ratio)": -0.775},
      {"variant": "A22U A29G A150G", "polymerase ribozyme fitness (log ratio)": "≤ -4.2"},
      {"variant": "A22U A41G C93U A107U C108U C129U G133U A142C", "polymerase ribozyme fitness (log ratio)": "≤ -4.2"},
      {"variant": "A22U C54U G81A G83A U90A C95U G141C", "polymerase ribozyme fitness (log ratio)": "≤ -4.2"},
      {"variant": "A21U C93G", "polymerase ribozyme fitness (log ratio)": -2.5},
      {"variant": "A21U C57A A107C A122G C123U U135C U145A", "polymerase ribozyme fitness (log ratio)": "≤ -4.2"},
      {"variant": "A22G A40C U139G", "polymerase ribozyme fitness (log ratio)": 0.649},
      {"variant": "A21U G59C G126U", "polymerase ribozyme fitness (log ratio)": 0.721},
      {"variant": "A22C C75G G88U A91G A110G C116A G136A", "polymerase ribozyme fitness (log ratio)": "≤ -4.2"},
      {"variant": "A22C G25A C51U A66C C85G C93U C116A", "polymerase ribozyme fitness (log ratio)": "≤ -4.2"},
      {"variant": "A22G G88A C96U", "polymerase ribozyme fitness (log ratio)": "≤ -4.2"},
      {"variant": "A22C C38U C69U C85U", "polymerase ribozyme fitness (log ratio)": -1.31},
      {"variant": "A21U A91G", "polymerase ribozyme fitness (log ratio)": -2.85},
      {"variant": "A21U U78C G86C U148A", "polymerase ribozyme fitness (log ratio)": "≤ -4.2"},
      {"variant": "A22G G59A A60C C85A G94A C105U G126A", "polymerase ribozyme fitness (log ratio)": -4.1},
      {"variant": "A22C G50U G67U G74U G92C C149G", "polymerase ribozyme fitness (log ratio)": "≤ -4.2"},
      {"variant": "A22C C27G C76U C96G G140U", "polymerase ribozyme fitness (log ratio)": "≤ -4.2"},
      {"variant": "A21U G71C C79G A107U A142C", "polymerase ribozyme fitness (log ratio)": "≤ -4.2"},
      {"variant": "A21U A60U C103G C108U A142G U148C", "polymerase ribozyme fitness (log ratio)": "≤ -4.2"},
      {"variant": "A21U C57A C76U C116A", "polymerase ribozyme fitness (log ratio)": 0.702},
      {"variant": "A22U C85A", "polymerase ribozyme fitness (log ratio)": -0.394},
      {"variant": "A21U A119U G124U", "polymerase ribozyme fitness (log ratio)": -0.526},
      {"variant": "A22C U61A G88A A107C A110C C123G G140A", "polymerase ribozyme fitness (log ratio)": "≤ -4.2"},
      {"variant": "A21U C32G G50A G83A G136A", "polymerase ribozyme fitness (log ratio)": "≤ -4.2"},
      {"variant": "A22G A52U G84A C123A", "polymerase ribozyme fitness (log ratio)": -2.11},
      {"variant": "A21U G48A U55A C75U G83C A89G A98U C105U G117A U144C", "polymerase ribozyme fitness (log ratio)": "≤ -4.2"},
      {"variant": "A22G C36G G92A A137G", "polymerase ribozyme fitness (log ratio)": "≤ -4.2"},
      {"variant": "A21U G50A C63G A89G C95U C116U", "polymerase ribozyme fitness (log ratio)": -1.96},
      {"variant": "A22U A66C C85G", "polymerase ribozyme fitness (log ratio)": "≤ -4.2"},
      {"variant": "A22G U31G C54U C96G A115G C123G A137C", "polymerase ribozyme fitness (log ratio)": "≤ -4.2"},
      {"variant": "A22C C114A", "polymerase ribozyme fitness (log ratio)": -3.5},
      {"variant": "A22C C69A G80C C85U A89U A142G", "polymerase ribozyme fitness (log ratio)": "≤ -4.2"},
      {"variant": "A22U A49U", "polymerase ribozyme fitness (log ratio)": -0.913},
      {"variant": "A22U A37C G83C C114G", "polymerase ribozyme fitness (log ratio)": -3.92},
      {"variant": "A22C U56A C57G G86U A142G", "polymerase ribozyme fitness (log ratio)": -3.37},
      {"variant": "A22G A91U C95U U109C A137U", "polymerase ribozyme fitness (log ratio)": "≤ -4.2"},
      {"variant": "A22U C87U G141U", "polymerase ribozyme fitness (log ratio)": 1.15},
      {"variant": "A22G A41C G50A C95U U101G", "polymerase ribozyme fitness (log ratio)": -1.78},
      {"variant": "A22U C114A", "polymerase ribozyme fitness (log ratio)": -3.29},
      {"variant": "A22C U55G G67A U78A C93G C99A C149G", "polymerase ribozyme fitness (log ratio)": "≤ -4.2"},
      {"variant": "A22C A28U C105U C123U", "polymerase ribozyme fitness (log ratio)": "≤ -4.2"},
      {"variant": "A22U A97G A122G", "polymerase ribozyme fitness (log ratio)": 0.332},
      {"variant": "A22G A40G A41C C57U A107U A120U", "polymerase ribozyme fitness (log ratio)": "≤ -4.2"},
      {"variant": "A22G G86C", "polymerase ribozyme fitness (log ratio)": -1.67},
      {"variant": "A21U C38U C95U A106U U144C", "polymerase ribozyme fitness (log ratio)": -2.96},
      {"variant": "A22U C35U A47U G59U G67A C132A G136U", "polymerase ribozyme fitness (log ratio)": "≤ -4.2"},
      {"variant": "A22U A39U A41G A52C G83U G94A G152C", "polymerase ribozyme fitness (log ratio)": -4.02},
      {"variant": "A21U U78G", "polymerase ribozyme fitness (log ratio)": "≤ -4.2"},
      {"variant": "A22G C85U C95G U135G", "polymerase ribozyme fitness (log ratio)": -3.76},
      {"variant": "A22G U31C U44A C95G A150G", "polymerase ribozyme fitness (log ratio)": "≤ -4.2"},
      {"variant": "A22U C93A", "polymerase ribozyme fitness (log ratio)": -2.34},
      {"variant": "A21U U53A C57U G83A C95U", "polymerase ribozyme fitness (log ratio)": -4.06},
      {"variant": "A22U A23G G50A G86A C116G U130G C131G", "polymerase ribozyme fitness (log ratio)": "≤ -4.2"},
      {"variant": "A22C A47U C54U G86U C103A", "polymerase ribozyme fitness (log ratio)": "≤ -4.2"},
      {"variant": "A22C G141U", "polymerase ribozyme fitness (log ratio)": 1.81},
      {"variant": "A22G A39G U61A G88C A121C U146G", "polymerase ribozyme fitness (log ratio)": "≤ -4.2"},
      {"variant": "A21U G46U U55A C85G A106G C116A", "polymerase ribozyme fitness (log ratio)": -1.91},
      {"variant": "A22U A28G G80C C99U C108A G140C", "polymerase ribozyme fitness (log ratio)": "≤ -4.2"},
      {"variant": "A21U C38A", "polymerase ribozyme fitness (log ratio)": 0.268},
      {"variant": "A21U C69U C87U C96A", "polymerase ribozyme fitness (log ratio)": -1.14},
      {"variant": "A21U C79G", "polymerase ribozyme fitness (log ratio)": -3.91},
      {"variant": "A22U A40U G42C C75A U90G", "polymerase ribozyme fitness (log ratio)": "≤ -4.2"},
      {"variant": "A21U C72U U77G U82G G100C U135G", "polymerase ribozyme fitness (log ratio)": "≤ -4.2"},
      {"variant": "A22C A52C G81U", "polymerase ribozyme fitness (log ratio)": -1.38},
      {"variant": "A21U C36A", "polymerase ribozyme fitness (log ratio)": -3.4},
      {"variant": "A22U A47U U53G U55A C57U G68A G86C C99U A138C U148G", "polymerase ribozyme fitness (log ratio)": "≤ -4.2"},
      {"variant": "A22G C72G C87U C93A C99A", "polymerase ribozyme fitness (log ratio)": "≤ -4.2"},
      {"variant": "A21U C99U C116U C125U", "polymerase ribozyme fitness (log ratio)": -1.64},
      {"variant": "A22G A41G A120G G141U", "polymerase ribozyme fitness (log ratio)": 1.45},
      {"variant": "A21U C36A G86A A98C", "polymerase ribozyme fitness (log ratio)": -4.1},
      {"variant": "A21U C36A G80A G88A G100U G124C G133A G143C U148A", "polymerase ribozyme fitness (log ratio)": "≤ -4.2"}
    ]}
  ]
}
